Data published in paper PMC3917506.
Read-outs that look alike come from different tables or passages of the source.

Columns and labels:
Assay in all cases: FRET or BRET
[1] = molecular target: Venus-IQGAP1 (human) (UniProt P46940)
[2] = molecular target: mCherry-actin (UniProt P60709)
[3] = molecular target: mCherry-actin (UniProt P60709); remark: listed apart in the source
[4] = molecular target: mCherry-actin (UniProt P60709); remark: listed apart in the source

Venus-IQGAP1, sequence (P46940 whole entry): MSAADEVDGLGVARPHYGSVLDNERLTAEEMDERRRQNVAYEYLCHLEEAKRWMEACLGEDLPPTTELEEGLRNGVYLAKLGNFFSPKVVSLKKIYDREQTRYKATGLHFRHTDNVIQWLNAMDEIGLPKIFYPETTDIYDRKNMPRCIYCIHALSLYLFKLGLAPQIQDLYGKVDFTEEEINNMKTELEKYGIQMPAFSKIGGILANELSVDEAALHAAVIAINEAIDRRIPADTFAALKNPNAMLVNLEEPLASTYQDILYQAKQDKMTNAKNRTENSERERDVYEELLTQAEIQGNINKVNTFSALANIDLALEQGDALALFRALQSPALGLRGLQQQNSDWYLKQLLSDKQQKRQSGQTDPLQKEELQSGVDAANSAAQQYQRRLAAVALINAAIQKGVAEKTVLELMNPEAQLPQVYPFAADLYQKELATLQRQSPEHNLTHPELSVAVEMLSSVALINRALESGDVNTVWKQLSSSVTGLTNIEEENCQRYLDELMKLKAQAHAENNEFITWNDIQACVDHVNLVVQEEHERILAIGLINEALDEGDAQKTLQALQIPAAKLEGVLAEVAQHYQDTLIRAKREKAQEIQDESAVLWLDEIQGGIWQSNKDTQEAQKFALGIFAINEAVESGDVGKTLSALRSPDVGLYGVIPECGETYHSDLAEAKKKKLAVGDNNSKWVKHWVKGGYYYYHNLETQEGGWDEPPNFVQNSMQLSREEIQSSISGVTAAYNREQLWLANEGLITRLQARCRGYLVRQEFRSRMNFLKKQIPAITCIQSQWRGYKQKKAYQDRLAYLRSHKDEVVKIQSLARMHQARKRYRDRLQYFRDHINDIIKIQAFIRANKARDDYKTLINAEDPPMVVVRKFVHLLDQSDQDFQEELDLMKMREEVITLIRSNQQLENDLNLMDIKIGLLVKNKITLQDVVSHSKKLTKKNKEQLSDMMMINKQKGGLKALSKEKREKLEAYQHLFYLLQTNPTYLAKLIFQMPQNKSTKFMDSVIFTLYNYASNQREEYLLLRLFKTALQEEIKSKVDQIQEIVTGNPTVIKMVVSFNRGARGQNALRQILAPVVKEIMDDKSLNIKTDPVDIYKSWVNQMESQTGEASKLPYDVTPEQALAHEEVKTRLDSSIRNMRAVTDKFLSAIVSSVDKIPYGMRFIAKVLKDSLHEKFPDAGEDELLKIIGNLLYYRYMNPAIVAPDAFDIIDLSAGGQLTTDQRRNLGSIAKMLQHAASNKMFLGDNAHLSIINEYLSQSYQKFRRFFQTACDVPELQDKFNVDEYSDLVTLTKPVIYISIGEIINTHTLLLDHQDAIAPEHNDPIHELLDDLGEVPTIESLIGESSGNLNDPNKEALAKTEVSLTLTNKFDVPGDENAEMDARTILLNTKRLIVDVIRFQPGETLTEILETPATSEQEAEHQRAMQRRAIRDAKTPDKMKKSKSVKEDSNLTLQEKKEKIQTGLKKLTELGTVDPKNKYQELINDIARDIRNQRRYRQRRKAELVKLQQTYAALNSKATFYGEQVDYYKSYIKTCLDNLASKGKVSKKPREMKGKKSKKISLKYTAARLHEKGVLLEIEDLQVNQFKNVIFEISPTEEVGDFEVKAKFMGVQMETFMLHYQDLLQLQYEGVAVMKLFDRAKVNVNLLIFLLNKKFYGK
CFP-Cdc42, P60953 1-191 (natural protein; other documents disagree on this pair), sequence (P60953 whole entry): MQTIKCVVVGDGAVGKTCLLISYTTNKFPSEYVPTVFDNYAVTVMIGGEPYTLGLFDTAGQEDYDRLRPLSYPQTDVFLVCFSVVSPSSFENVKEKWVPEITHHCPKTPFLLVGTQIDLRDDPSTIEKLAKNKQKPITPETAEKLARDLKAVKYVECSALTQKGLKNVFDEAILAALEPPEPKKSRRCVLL
Venus-IQGAP1 (human), sequence (P46940 whole entry): as the sequence (P46940 whole entry) above

CFP-Cdc42, P60953 1-191 (natural protein; other documents disagree on this pair)
FRET efficiency E% at low D:A ratios (regression line) [1]: 25% | average FRET efficiency E% [1]: 20%

Venus-IQGAP1 (from UniProt P46940 1-1657) (natural protein)
average FRET efficiency E% [2]: 26% | FRET efficiency E% at low D:A ratios (regression line) [3]: 25 to 35% | average FRET efficiency E% [3]: 31% | FRET efficiency E% at low D:A ratios (regression line) [4]: 25 to 35%
